Measurements published in paper doi:10.1101/2024.12.20.629688.

Tests used:
[1] = biological target: myristoylated human Arf1, GTP-bound form, anchored on membrane (nanodiscs or LUVs) (human) (UniProt P84077)
[2] = biological target: myrArf1 with Glu54 mutated to Ala (human) (UniProt P84077)
[3] = biological target: myristoylated human Arf1, GTP-bound form, anchored on membrane (nanodiscs or LUVs) (human) (UniProt P84077); experiment: not stated; binding of the K391A mutant, shown in Fig. SI5
[4] = biological target: myristoylated human Arf1, GTP-bound form, anchored on membrane (nanodiscs or LUVs) (human) (UniProt P84077); remark: listed apart in the source

Chain of myristoylated human Arf1, GTP-bound form, anchored on membrane (nanodiscs or LUVs) (human) (P84077 whole entry): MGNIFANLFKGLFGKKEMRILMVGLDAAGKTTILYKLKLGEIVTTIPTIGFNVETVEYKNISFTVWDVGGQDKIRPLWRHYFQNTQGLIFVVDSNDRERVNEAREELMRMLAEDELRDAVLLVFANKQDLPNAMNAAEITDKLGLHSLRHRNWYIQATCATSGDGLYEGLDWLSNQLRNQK
Chain of wt PZA, [325–724]ASAP1 (PH, Arf GAP and ankyrin repeat domains) (Q9QWY8 325-724): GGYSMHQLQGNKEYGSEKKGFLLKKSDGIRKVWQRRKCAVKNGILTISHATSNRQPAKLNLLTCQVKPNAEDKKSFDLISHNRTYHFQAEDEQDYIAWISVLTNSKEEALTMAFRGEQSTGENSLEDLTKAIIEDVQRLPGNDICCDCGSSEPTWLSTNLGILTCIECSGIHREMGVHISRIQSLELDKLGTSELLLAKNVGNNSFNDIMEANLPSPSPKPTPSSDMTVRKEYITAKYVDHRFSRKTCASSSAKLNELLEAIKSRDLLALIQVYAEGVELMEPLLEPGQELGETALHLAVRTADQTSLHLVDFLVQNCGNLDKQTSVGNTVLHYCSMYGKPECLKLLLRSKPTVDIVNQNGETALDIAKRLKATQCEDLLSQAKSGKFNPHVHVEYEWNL
Chain of myrArf1 with Glu54 mutated to Ala (human) (P84077 other isoform, or with tags, fused parts or gaps, stated change not applied): as the sequence (P84077 whole entry) above, with E54A counted along it
Chain of PZA with His405 mutated to Glu (Q9QWY8 other isoform, or with tags, fused parts or gaps, change not shown): as the sequence (Q9QWY8 325-724) above, with H81E counted along it
Chain of PZA with Phe438 mutated to Ala (Q9QWY8 other isoform, or with tags, fused parts or gaps, change not shown): as the sequence (Q9QWY8 325-724) above, with F114A counted along it
Chain of ΔN14 PZA (PZA without residues 325–338) (Q9QWY8 339-724, stated change not applied): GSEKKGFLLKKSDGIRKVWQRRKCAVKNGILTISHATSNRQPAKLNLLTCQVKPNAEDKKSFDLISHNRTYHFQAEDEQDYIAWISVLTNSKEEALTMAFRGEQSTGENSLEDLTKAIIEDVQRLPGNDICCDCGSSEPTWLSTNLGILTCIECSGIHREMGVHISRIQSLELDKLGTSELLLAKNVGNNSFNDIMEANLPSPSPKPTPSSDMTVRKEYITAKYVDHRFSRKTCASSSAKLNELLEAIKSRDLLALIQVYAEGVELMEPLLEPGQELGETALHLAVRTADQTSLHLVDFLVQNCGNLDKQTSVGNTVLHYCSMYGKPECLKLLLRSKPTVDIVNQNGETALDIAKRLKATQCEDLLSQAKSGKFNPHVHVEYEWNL
Chain of PZA with Lys391 mutated to Ala (Q9QWY8 other isoform, or with tags, fused parts or gaps, change not shown): as the sequence (Q9QWY8 325-724) above, with K67A counted along it

Substance	ArfGAP activity (C50: concentration of PZA for 50% GTP hydrolysis in 3 min), fold reduction against wild type [4] [fold]	also measured
ΔN14 PZA (PZA without residues 325–338) (from UniProt Q9QWY8 339-724) (domain or fragment)	–	GAP activity relative to wt PZA (fold of wt PZA) [1]: < 0.01
wt PZA, [325–724]ASAP1 (PH, Arf GAP and ankyrin repeat domains) (from UniProt Q9QWY8 325-724) (domain or fragment)	–	ArfGAP activity (C50: concentration of PZA for 50% GTP hydrolysis in 3 min), fold reduction against wild type [2]: 70 fold
ASAP1 PH domain with Lys391 mutated to Ala (from UniProt Q9QWY8 325-451) (domain or fragment)	–	fold reduction of binding against wild type [3]: 2 fold
PZA with Lys391 mutated to Ala (from UniProt Q9QWY8 325-724) (domain or fragment)	100	–
PZA with His405 mutated to Glu (from UniProt Q9QWY8 325-724) (domain or fragment)	5	–
PZA with Phe438 mutated to Ala (from UniProt Q9QWY8 325-724) (domain or fragment)	15	–
